The values that follow come from patent US20120316071A1 (published 2012).

Substitutions are numbered along the chain they refer to. Names and notes keep the numbering of the source.

The target of test [1] is T1, rHuman P-Cadherin/Fc Chimera, CF (R&D Systems Cat#861-PC) (human, UniProt P22223 108-654).
T1 construct: Bought recombinant protein; not shown: Fc portion of the purchased chimera
Description: ECL Multispot (MSD), antigen spotted on plate, 10 nM Fab; blank spot of this well 214.

For test [2], the target named is T2, rHuman Erythropoietin R/Fc Chimera, CF (R&D Systems Cat#963-ER) (human, UniProt P19235 25-250).
T2 construct: Bought recombinant protein; also called EPO R; EPO R/Fc; not shown: Fc portion of the purchased chimera
T2 sequence (looked up): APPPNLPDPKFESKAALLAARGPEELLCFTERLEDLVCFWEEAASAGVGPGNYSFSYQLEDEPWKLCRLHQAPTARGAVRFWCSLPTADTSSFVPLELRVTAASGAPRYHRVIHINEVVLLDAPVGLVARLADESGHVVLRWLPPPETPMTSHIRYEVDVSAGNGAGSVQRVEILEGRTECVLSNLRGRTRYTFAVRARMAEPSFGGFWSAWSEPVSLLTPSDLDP
The test is described as above.

The target in test [3] is T3, rHuman ErbB2/Fc Chimera, CF (R&D Systems Cat#1129-ER) (human, UniProt P04626 23-652).
T3 construct: Bought recombinant protein; also called human epidermal growth factor 2 receptor; not shown: Fc portion of the purchased chimera
Described as above.

Test [4] concerns the target T4, rHuman EGF R/Fc Chimera, CF (R&D Systems Cat#344-ER) (human, UniProt P00533 25-645).
T4 construct: Bought recombinant protein; also called epidermal growth factor receptor; not shown: Fc portion of the purchased chimera
The test is described as above.

In test [5] the target is T5, rHuman HGF R/c-MET/Fc Chimera, CF (R&D Systems Cat#358-MT/CF) (human, UniProt P08581 25-932).
T5 construct: Bought recombinant protein; also called HGF R/Fc; hepatocyte growth factor receptor; not shown: Fc portion of the purchased chimera
The test is described as above.

Test [6] addresses T6, rHuman Notch-1/Fc Chimera, CF (R&D Systems Cat#3647-TK) (human, UniProt P46531 19-526).
T6 construct: Bought recombinant protein; the chimera holds only a part of it; not shown: Fc portion of the purchased chimera
The description is as above.

For test [7], the target named is T7, rHuman CD44/Fc Chimera, CF (R&D Systems Cat#3660-CD) (human, UniProt P16070 21-220).
T7 construct: Bought recombinant protein; not shown: Fc portion of the purchased chimera
Described as above.

For test [8], the target named is T8, rHuman IGF-1 sR, CF (R&D Systems Cat#391-GR) (human, UniProt P08069 31-932).
T8 construct: Bought recombinant soluble receptor; The column head prints only 'IGF-1'; also called insulin-like growth factor-1 soluble receptor
Described as above.

The target in test [9] is T1, rHuman P-Cadherin/Fc Chimera, CF (R&D …). Description: ECL Multispot (MSD), antigen spotted on plate, 10 nM Fab; blank spot of this well 306.
In test [10] the target is T2, rHuman Erythropoietin R/Fc Chimera, CF …. The test is described as above.
For test [11], the target named is T3, rHuman ErbB2/Fc Chimera, CF (R&D …). Described as above.
Test [12] deals with T4, rHuman EGF R/Fc Chimera, CF (R&D …). The description is as above.
Test [13] has as its target T5, rHuman HGF R/c-MET/Fc Chimera, CF (R&D …). The description is as above.
The target in test [14] is T6, rHuman Notch-1/Fc Chimera, CF (R&D …). The description is as above.
Test [15] addresses T7, rHuman CD44/Fc Chimera, CF (R&D Systems …). The test is described as above.
Test [16] addresses T8, rHuman IGF-1 sR, CF (R&D Systems …). Described as above.
The target of test [17] is T9, rHuman IGF-1 sR, CF (R&D Systems Cat#391-GR) (human, UniProt P08069 31-932).
T9 construct: Bought soluble receptor; also called insulin-like growth factor-1 soluble receptor
Description: ECL Multispot (MSD), 10 nM Fab; blank 219.

The target of test [18] is T10, rHuman P-Cadherin/Fc Chimera, CF (R&D Systems Cat#861-PC) (human, UniProt P22223 108-654).
T10 construct: Bought reagent; Fc part of the bought chimera not given
Description: ECL Multispot (MSD), 10 nM Fab; blank 219.

Test [19] addresses T11, rHuman Erythropoietin R/Fc Chimera, CF (R&D Systems Cat#963-ER) (human, UniProt P19235 25-250).
T11 construct: Bought reagent; also called EPO R; EPO R/Fc; Fc part of the bought chimera not given
T11 sequence (looked up): T2 sequence (looked up)
In words: ECL Multispot (MSD), 10 nM Fab; blank 219.

Test [20] deals with T12, rHuman ErbB2/Fc Chimera, CF (R&D Systems Cat#1129-ER) (human, UniProt P04626 23-652).
T12 construct: Bought reagent; also called human epidermal growth factor 2 receptor; Fc part of the bought chimera not given
Description: ECL Multispot (MSD), 10 nM Fab; blank 219.

The target of test [21] is T13, rHuman EGF R/Fc Chimera, CF (R&D Systems Cat#344-ER) (human, UniProt P00533 25-645).
T13 construct: Bought reagent; also called epidermal growth factor receptor; Fc part of the bought chimera not given
In words: ECL Multispot (MSD), 10 nM Fab; blank 219.

Test [22] concerns the target T14, rHuman HGF R/c-MET/Fc Chimera, CF (R&D Systems Cat#358-MT/CF) (human, UniProt P08581 25-932).
T14 construct: Bought reagent; also called HGF R/Fc; hepatocyte growth factor receptor; Fc part of the bought chimera not given
Description: ECL Multispot (MSD), 10 nM Fab; blank 219.

The target of test [23] is T15, rHuman Notch-1/Fc Chimera, CF (R&D Systems Cat#3647-TK) (human, UniProt P46531 19-526).
T15 construct: Bought reagent; Fc part of the bought chimera not given
In words: ECL Multispot (MSD), 10 nM Fab; blank 219.

In test [24] the target is T16, rHuman CD44/Fc Chimera, CF (R&D Systems Cat#3660-CD) (human, UniProt P16070 21-220).
T16 construct: Bought reagent; Fc part of the bought chimera not given
Description: ECL Multispot (MSD), 10 nM Fab; blank 219.

B1: Fab VH1-46_IGHD6-6*01_IGHJ1*01 S102A/S103P/S104F (APF) & L6_IGKJ1*01 (Fab, V domains shown)
VH: QVQLVQSGAEVKKPGASVKVSCKASGYTFTSYYMHWVRQAPGQGLEWMGIINPSGGSTSYAQKFQGRVTMTRDTSTSTVYMELSSLRSEDTAVYYCAREEYAPFSAEYFQHWGQGTLVTVSS
VL: not shown
notes: Tested as a Fab expressed in E. coli: the heavy chain from Plasmid A (CH1, His6 and Flag tags), the kappa light chain from Plasmid C (CL kappa); also called H:APF & L:wt; APF triple mutant
Regarding B1, the ECL signal in test [1] turned out to be 152; in test [2], 179; in test [3], 202; in test [4], 138; in test [5] it was 190; in test [6], 189. The ECL signal worked out at 199 in test [7]; 190 in test [8]; 422 in test [9]; 312 in [10]; 378 in test [11]; 277 in test [12]. Further, the ECL signal is 317 in [13], 370 in [14], 262 in [15] and 207 in test [16].

B2: Fab VH1-46_IGHD6-6*01_IGHJ1*01 S102A/S103P/S104F A106E & L6_IGKJ1*01 (Fab, V domains shown)
VH: B1 VH with A106E
VL: not shown
notes: Tested as a Fab (CH1 with His6/Flag tags, kappa CL); also called APF A106E
As for B2, the ECL signal in test [17] was determined as 312; in test [18], 308; in test [19], 204; in [20], 189; in [21] it was 226; in test [22] it was 212. Further, the values for the ECL signal in [23] and in test [24] were 156 and 192, respectively.
